Patent US20250236667A1, “ANTIBODIES TO MUTANT CALRETICULIN AND USES THEREOF” (CENTRAL ADELAIDE LOCAL HEALTH NETWORK INC, priority 2021, published 2025)

Legend:
[1] = tested on: TF-1 TpoR CALR^del61 cells; assay: Flow cytometry of 4D7 binding to the cell surface, mutant CALR cells; format: cell-based, human; conditions: PE-conjugated 4D7; vs unstained or isotype-PE control
Experimental: TF-1 cells expressing TpoR and mutant CALR were incubated for 30 minutes 4D7 conjugated to phycoerthryin (PE) (Abcam, #AB102918) or IgG2a PE isotype control (ThermoFisher #12-4321-42) at the concentrations specified after pre-incubation with mouse serum. Cells were washed 1 × before analysis on a CytoFLEX (Beckman Coulter).

[2] = molecular target: T1, mutant CALR dimers and monomers bound to TpoR in TF-1 TpoR CALR^del61 (Homo sapiens, UniProt P27797); assay: TpoR immunoprecipitation under non-reducing conditions; format: cell-based; conditions: 8 hour treatment with 20 μg/mL
T1 construct: expressed in transfected cells; host or cells: TF-1 TpoR CALR^del61
T1 sequence (P27797 with tags, fused parts or gaps limits assumed): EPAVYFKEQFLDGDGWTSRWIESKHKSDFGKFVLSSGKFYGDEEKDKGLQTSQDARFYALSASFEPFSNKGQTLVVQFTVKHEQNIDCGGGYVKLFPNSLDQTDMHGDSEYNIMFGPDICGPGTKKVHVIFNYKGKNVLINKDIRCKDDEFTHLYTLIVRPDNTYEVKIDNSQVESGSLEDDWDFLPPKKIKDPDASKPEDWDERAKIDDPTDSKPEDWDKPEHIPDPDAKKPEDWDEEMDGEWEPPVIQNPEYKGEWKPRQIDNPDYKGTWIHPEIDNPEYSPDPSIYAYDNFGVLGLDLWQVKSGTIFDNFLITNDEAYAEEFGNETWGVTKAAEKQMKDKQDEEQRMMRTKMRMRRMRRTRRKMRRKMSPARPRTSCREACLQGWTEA
Experimental: A. Cell extracts blotted for phospho-STAT5, total STAT5, phospho-ERK, total ERK and actin from TF-1 TpoR cells after incubation with 10 or 20 μg/mL 4D7 or IgG for 4 or 8 hours, in presence of TPO. The last line indicates TPO withdrawal. B. Similar experiment using TPO-independent TF-1 TpoR CALR^del61 cells. C. Similar experiment using TPO-independent TF-1 TpoR CALR^del52 cells at 8 hours. D. Fraction of apoptotic sub-Go population of TF-1 TpoR CALR^del61 cells after 48 hours of 4D7 or IgG treatment (n=3). E. Western blot showing caspase 3 cleavage occurring within 24 hours of TPO withdrawal in TPO dependent TF-1 TpoR cells. An increase in cleaved caspase 3 is observed after 48 hours of treatment with 20 μg/mL 4D7 in TF-1 TpoR CALR^del61 and TF-1 TpoR CALR^del52 cells. F. Western blot of TpoR immunoprecipitation under non-reducing conditions showing associated CALR 50 kDa monomers and 100 kDa dimers (arrowheads) present only in TF-1 TpoR CALR^del61 disrupted by 8 hour treatment with 20 μg/mL 4D7 but not PBS or 20 μg/mL IgG. CALR monomers & dimers are detectable by polyclonal anti-wild type CALR or anti-mutant CALR monoclonal antibodies. Arrowheads, detected mutant CALR protein: asterisk, non-specific bands. G. Proposed model for the mechanism of action of 4D7 on mutant CALR. […]

B1: 4D7: rat monoclonal IgG2a antibody against the mutant CALR neoepitope; VH SEQ ID NO: 5, VL SEQ ID NO: 7 (antibody, listed as Rattus rattus, V domains shown)
VH: QVQLQQSGAELAKPGSSVKISCKASGYTFTNYDMSWIKQRPGQALEWIGAINPGNGVTDYNEKFRGKATLTVDKSSSTAFMQLSSLTPEDTAVYHCAREYRDNYGYFDYWGQGVMVTVSS
VL: DIVLTQTPVSLSVTLGDQASISCRSSQSLEYSDGYTYLDWFLQKPGQSPQLLIYEVSSRFSGVPDRFIGRGSGTDFTLKISRVEPEDLGVYYCFQATHDPFTFGSGTKLEIK
Question: For B1, which “binding to the cell surface” value [1] is on record?
Answer: Specific binding

Question: And the “presence of CALR disulfide-linked dimers and CALR monomers bound to TpoR” value [2]?
Answer: diminished
